B1: CPEB3 Ribozyme (parent)
chain: UAACAGGGGGCCACAGCAGAAGCGUUCACGUCGCAGCCCCUGUCAGAUUCUGGUGAAUCUGCGAAUUCUGCUGUAUAUCUC

Variants of: B1
Assay: self-cleavage, relative activity (ratio to wild type); higher = more cleavage; in vitro, sequencing
How it was run: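 Libraries of CPEB3 self-cleaving ribozyme mutants came from rounds of error-prone PCR and carried barcodes, which DNA sequencing matched to variants. In vitro transcription used T7 RNA polymerase at 37°C for 5 hours, with a further 15 min in DNase I before EDTA stopped the reaction; the ribozymes cleaved during both steps. The RNA was reverse transcribed with template switching and sequenced on Illumina. Relative activity is the cleaved/total read fraction of a variant divided by that of the unmutated ribozyme, averaged over three batches with at least 5 reads.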

Variant | self-cleavage
UAUCAGGGGGCCACAGCAGAAGCGUUCACGUCGCAGCCCCUGUCUGAUUCUGGUGAAUCUGCGAAUUCUGCUGUAUAUCUC [A3U A45U] | 0.73
UAUCAGGGGGCCACAGCAGAAGCGUUCACGUCGCAGCCCCUGUCGGAUUCUGGUGAAUCUGCGAAUUCUGCUGUAUAUCUC [A3U A45G] | 1.03
UAUCAGGGGGCCACAGCGGAAGCGUUCACGUCGCAGCCCCUGUCAGAUUCUGGUGAAUCUGCGAAUUCUGCUGUAUAUCUC [A3U A18G] | 0.8
UAUCAGGGGGCCACAGCUGAAGCGUUCACGUCGCAGCCCCUGUCAGAUUCUGGUGAAUCUGCGAAUUCUGCUGUAUAUCUC [A3U A18U] | 0.56
UAUCAGGGGGCCACAGCAGAAGCGUUCACGUCGUAGCCCCUGUCAGAUUCUGGUGAAUCUGCGAAUUCUGCUGUAUAUCUC [A3U C34U] | 0.51
UAUCAGGGGGCCACAGCAGAAGCGUUCACGUCGCAGCCCCUGUCAGAUUCUGGUGAAUCUGCGAAUUCUGCUGUAUAUCUC [A3U] | 1.06
UAUCAGGGGGGCACAGCAGAAGCGUUCACGUCGCAGCCCCUGUCAGAUUCUGGUGAAUCUGCGAAUUCUGCUGUAUAUCUC [A3U C11G] | 0.4
UAGCAGGGGGCCACAGCAGAAGCGUUCACGUCGCAGCCCCUGUCAGAUUCUGGUGAAUCUGCGAAUUCUGCUGUAUAUCGC [A3G U80G] | 1.12
UAGCAGGGGGCCACAGCAGAAGCGUUCACGUCGCAGCCCCUGUCAGAUUCUGGUGAAUCUGCGAAUUCUGCUGUAUAUCCC [A3G U80C] | 1.07
UAGCAGGGGGCCACAGCAGAAGCGUUCACGUCGCAGCCCCUGUCAGAUUCUGGUGAAUCUGCGAAUUCUGCUGUAUAUCAC [A3G U80A] | 1.11
UAUCUGGGGGCCACAGCAGAAGCGUUCACGUCGCAGCCCCUGUCAGAUUCUGGUGAAUCUGCGAAUUCUGCUGUAUAUCUC [A3U A5U] | 1.18
UAUCGGGGGGCCACAGCAGAAGCGUUCACGUCGCAGCCCCUGUCAGAUUCUGGUGAAUCUGCGAAUUCUGCUGUAUAUCUC [A3U A5G] | 0.79
UAUCAGGGGGCCACAGCAGAAGCGUUCACGUCGCAGCCCCUGUCAGGUUCUGGUGAAUCUGCGAAUUCUGCUGUAUAUCUC [A3U A47G] | 1.17
UAUCAGGGGGCCACAGCAGAAGCGUUCACGUCGCAGCCCCUGUCAGUUUCUGGUGAAUCUGCGAAUUCUGCUGUAUAUCUC [A3U A47U] | 0.71
UAUCAGGGGGCCACAGCAGAAGCGUUCACGUCGCAGCCCCUGUCAGCUUCUGGUGAAUCUGCGAAUUCUGCUGUAUAUCUC [A3U A47C] | 0.69
UAUAAGGGGGCCACAGCAGAAGCGUUCACGUCGCAGCCCCUGUCAGAUUCUGGUGAAUCUGCGAAUUCUGCUGUAUAUCUC [A3U C4A] | 1.22
UAUUAGGGGGCCACAGCAGAAGCGUUCACGUCGCAGCCCCUGUCAGAUUCUGGUGAAUCUGCGAAUUCUGCUGUAUAUCUC [A3U C4U] | 1.17

Variant | self-cleavage
UAGCAGGGGGCCACAGCAGAAGCGUUCACGUCGCAGCCCCUGUCAGAUUCUGGUGAAUCUGCGAAUUCUGCUGUAAAUCUC [A3G U76A] | 1.23
UAGCAGGGGGCCACAGCAGAAGCGUUCACGUCGCAGCCCCUGUCAGAUUCUGGUGAAUCUGCGAAUUCUGCUGUACAUCUC [A3G U76C] | 1.15
UAUCAGGGGGCCGCAGCAGAAGCGUUCACGUCGCAGCCCCUGUCAGAUUCUGGUGAAUCUGCGAAUUCUGCUGUAUAUCUC [A3U A13G] | 0.89
UAUCAGGGGGCCUCAGCAGAAGCGUUCACGUCGCAGCCCCUGUCAGAUUCUGGUGAAUCUGCGAAUUCUGCUGUAUAUCUC [A3U A13U] | 1.16
UAUCAGGGGGCCCCAGCAGAAGCGUUCACGUCGCAGCCCCUGUCAGAUUCUGGUGAAUCUGCGAAUUCUGCUGUAUAUCUC [A3U A13C] | 0.96
UAUCAGGGGGCCACAGCAGAAGCGUUCACGUCGCAGCCCCUGUUAGAUUCUGGUGAAUCUGCGAAUUCUGCUGUAUAUCUC [A3U C44U] | 0.73
UAUCAGGGGGCCACAGCAGGAGCGUUCACGUCGCAGCCCCUGUCAGAUUCUGGUGAAUCUGCGAAUUCUGCUGUAUAUCUC [A3U A20G] | 0.94
UAUCAGGGGGCCACAGCAGCAGCGUUCACGUCGCAGCCCCUGUCAGAUUCUGGUGAAUCUGCGAAUUCUGCUGUAUAUCUC [A3U A20C] | 0.21
UAUCAGGGGGCCACAGCAGUAGCGUUCACGUCGCAGCCCCUGUCAGAUUCUGGUGAAUCUGCGAAUUCUGCUGUAUAUCUC [A3U A20U] | 0.45
UAUCAGGGGGCCACAGCAGAAGCGUUCAUGUCGCAGCCCCUGUCAGAUUCUGGUGAAUCUGCGAAUUCUGCUGUAUAUCUC [A3U C29U] | 0.71
UAGCAGGGGGCCACAGCAGAAGCGUUCACGUCGCAGCCCCUGUCAGAUUCUGGUGAAUCUGCGAAUUCUGCCGUAUAUCUC [A3G U72C] | 1.09
UAGCAGGGGGCCACAGCAGAAGCGUUCACGUCGCAGCCCCUGUCAGAUUCUGGUGAAUCUGCGAAUUCUGCGGUAUAUCUC [A3G U72G] | 1.07
UAGCAGGGGGCCACAGCAGAAGCGUUCACGUCGCAGCCCCUGUCAGAUUCUGGUGAAUCUGCGAAUUCUGCAGUAUAUCUC [A3G U72A] | 0.7
UAUCAGGGGGCCACAGCAGAAGCGUUCACGUCGCAGCCCCUGUCAGAUUCUGGUGAAUCUGCGAUUUCUGCUGUAUAUCUC [A3U A65U] | 0.14
UAUCAGGGGGCCACAGCAGAAGCGUUCACGUCGCAGCCCCUGUCAGAUUCUGGUGAAUCUGCGAGUUCUGCUGUAUAUCUC [A3U A65G] | 0.54
UAUCAGGGGGCCACAGCAGAAGCGUUCACGUCGCAGCUCCUGUCAGAUUCUGGUGAAUCUGCGAAUUCUGCUGUAUAUCUC [A3U C38U] | 0.97
UAUCAGGGGGCCACAGCAGAAGCGUUCACGUCGCAGCGCCUGUCAGAUUCUGGUGAAUCUGCGAAUUCUGCUGUAUAUCUC [A3U C38G] | 0.31

From the RNAGym collection of RNA variant scans (doi:10.1093/nar/gkz1192)
